{
  "source": "paper PMC6829862",
  "target": "mCherry–Gβ1γ9 dimer (UniProt P62873)",
  "experiment": "FRET or BRET; FLIM-FRET in living transiently transfected HEK 293 cells at 37 °C; donor Citrine in Gα, acceptor mCherry on Gβ1 with the appropriate Gγ; efficiency E = 1 − τda/τd from the short lifetime component τ1 (donor alone 2.7 ± 0.1 ns), analysed only at the plasma membrane; GppNHp added to the culture did not change the signal",
  "data": [
    {"substance": "Citrine–Gαi3 (from UniProt P08754 1-354) (natural protein)", "values": [
      {"measurement": "FRET efficiency, lower than that of m3 with m4 by", "value": 5, "unit": "%"}
    ]}
  ]
}
